Test results reported in US20220064322A1 (JACOBIO PHARMACEUTICALS, published 2022).
Like-named read-outs stand apart in the source and are kept apart here.

T1: human CD73 ecto-domain recombinant protein (huCD73) (human, UniProt P21589 27-547)
T1 construct: also called soluble huCD73; soluble recombinant CD73
T1 sequence: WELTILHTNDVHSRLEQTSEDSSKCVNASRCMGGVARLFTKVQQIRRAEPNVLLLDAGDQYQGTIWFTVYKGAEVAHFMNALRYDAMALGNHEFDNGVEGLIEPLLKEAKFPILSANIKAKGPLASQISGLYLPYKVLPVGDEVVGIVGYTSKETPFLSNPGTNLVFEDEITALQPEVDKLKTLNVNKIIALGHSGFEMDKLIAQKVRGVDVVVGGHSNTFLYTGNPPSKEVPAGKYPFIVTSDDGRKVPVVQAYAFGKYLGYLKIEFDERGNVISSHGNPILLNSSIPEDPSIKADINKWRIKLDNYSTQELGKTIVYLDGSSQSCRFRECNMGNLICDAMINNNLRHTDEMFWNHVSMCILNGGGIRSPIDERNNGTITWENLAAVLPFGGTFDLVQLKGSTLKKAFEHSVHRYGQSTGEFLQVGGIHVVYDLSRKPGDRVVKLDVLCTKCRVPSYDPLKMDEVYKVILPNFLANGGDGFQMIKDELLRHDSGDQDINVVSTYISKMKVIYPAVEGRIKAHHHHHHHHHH

T2: cynomolgus CD73 on the cell surface (293T/17-cynoCD73 cells) (cynomolgus (Macaca fascicularis), UniProt P21589 27-547 (human entry))
T2 chain: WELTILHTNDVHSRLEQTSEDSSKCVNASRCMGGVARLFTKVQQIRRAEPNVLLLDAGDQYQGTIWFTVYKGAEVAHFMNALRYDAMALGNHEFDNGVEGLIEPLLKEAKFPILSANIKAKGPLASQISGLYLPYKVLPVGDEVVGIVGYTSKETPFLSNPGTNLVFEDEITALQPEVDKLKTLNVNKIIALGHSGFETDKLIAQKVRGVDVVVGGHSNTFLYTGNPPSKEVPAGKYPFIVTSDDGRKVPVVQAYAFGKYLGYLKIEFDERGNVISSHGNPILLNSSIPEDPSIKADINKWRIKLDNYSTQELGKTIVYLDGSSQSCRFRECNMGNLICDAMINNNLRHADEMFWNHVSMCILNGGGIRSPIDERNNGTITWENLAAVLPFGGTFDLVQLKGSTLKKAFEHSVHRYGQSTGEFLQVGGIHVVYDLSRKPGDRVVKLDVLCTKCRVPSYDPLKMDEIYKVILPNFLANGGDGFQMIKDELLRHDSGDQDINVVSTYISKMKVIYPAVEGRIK

B1: JB94H1L3 (antibody, human IgG1, kappa)
heavy: not shown
light: DIQMTQSPSSLSASVGDRVTITCKASQDINTYLSWFQQKPGKSPKSLIYRSNILVDGVPSRFSGSGSGQDYTLTISSLQPEDFAIYYCLQYDDFPYTFGQGTKLEIKRTVAAPSVFIFPPSDEQLKSGTASVVCLLNNFYPREAKVQWKVDNALQSGNSQESVTEQDSKDSTYSLSSTLTLSKADYEKHKVYACEVTHQGLSSPVTKSFNRGEC
notes: Humanized antibody of the 94 clone, human IgG1 / kappa
B2: JB24H2L1 (antibody, human IgG1, kappa, V domains shown)
VH: QVQLVQSGAEVKKPGASVKMSCKASGYTFTDYNMHWVRQSPGKSLEWIGYIKPHNAGTTYNPKFEGRATLTVDTSASTAYMELSSLRSEDTAVYYCVRSDFLYWYFDVWGQGTTVTVSS
VL: DIQMTQSPSSLSASVGDRVTITCTASSSVSSSYLHWYQQKPGKAPKLLIYSTSNLASGVPSRFSGSGSGTDFTLTISSLQPEDFATYYCHQYHRSPLTFGAGTKLEIKR
notes: Humanized antibody of JB24Chi, human IgG1 / kappa
B3: JB24Chi (antibody, human IgG1, kappa, V domains shown)
VH: QVQLQQSGLELVKPGASVKMSCKASGYTFTDYNMHWVKQSHGKSLEWIGYIKPHNGGTTYNPKFEGKATLTVNKSSSTAYMELRSLTSEDSAVYYCVRCDFLYWYFDVWGTGTTVTVSS
VL: DIVMTQSPAIMSASLGERVTMTCTASSSVSSSYLHWYQQKPGSSPKLWIYSTSNLASGVPGRFSGSGSGTSYSLTISSMEAEDAATYYCHQYHRSPLTFGAGTKLEMKR
notes: Phage antibody, chimeric human IgG1 / human kappa full chains

Legend:
[1] = biological target: T1, human CD73 ecto-domain recombinant …; experiment: indirect ELISA, coated huCD73 recombinant protein
Method: (§1) Incubated with gradient diluted 100 μL/well of antibodies for 1 h at room temperature. After the plates were washed 3 times with 200 ul/well of PBST, 100 ul of diluted HRP-labeled secondary antibody at a ratio of 1:5000 was added to each well, and the plates were incubated for 1 hour at room temperature. The plates were washed 3 times with 200 ul/well of PBST, 100 ul of TMB was added to each well and reacted for 5 minutes at room temperature in the dark. […] read the OD value. The affinity of humanized antibodies and parent antibodies were similar to the antigen (table 9).

[2] = biological target: T2, cynomolgus CD73 on the cell surface …; experiment: cell-based or functional assay
[3] = biological target: T1, human CD73 ecto-domain recombinant …; experiment: indirect ELISA, coated huCD73 recombinant protein, curve fit
Method: as §1

[4] = biological target: T2, cynomolgus CD73 on the cell surface …; experiment: flow cytometry on 293T/17-Cyno CD73 cells, curve fit
Method: (§2) 2×10⁶ cells resuspended in PBS buffer were distributed into 96-well plates and incubated with gradient diluted humanized antibodies for 1 h at refrigerator 4° C. or on ice, then the cells was centrifuged for 3 min 1500 rpm at 4° C. and washed three times by PBS, and diluted APC-labeled goat anti-human polyclonal antibody (Biolegend) were incubated for 30 min at refrigerator 4° C. Finally, the cells were washed three times with PBS as described above and analyzed on MACSQuant flow cytometer. GraphPad Prism software was used to generate data graphs and statistical affinity data.
(§3) The samples to be tested were incubated for 1 h at 4° C. after gradient dilution. After washing, 100 μL of APC-labeled secondary antibody was added to each well and incubated for 30 min. After washing, detecting on machine and the fluorescence value was read. GraphPad Prism software was used to generate data graphs and statistical affinity data.

[5] = biological target: T2, cynomolgus CD73 on the cell surface …; experiment: flow cytometry on 293T/17 cells expressing cynoCD73, APC-labelled goat anti-human antibody, MFI
Method: as §2, §3

[6] = biological target: T1, human CD73 ecto-domain recombinant …; experiment: indirect ELISA, plate coated with 1 ug/ml huCD73 recombinant protein, HRP-labelled secondary antibody, RFU
Method: as §1

[7] = biological target: T2, cynomolgus CD73 on the cell surface …; experiment: flow cytometry on 293T/17-Cyno CD73 cells
Method: as §2, §3

[8] = biological target: T1, human CD73 ecto-domain recombinant …; experiment: indirect ELISA, coated soluble huCD73
Method: (§4) The indirect ELISA method was applied to evaluate the binding ability of each positive clone to soluble huCD73 protein. Soluble huCD73 was coated, and gradient diluted samples were incubated, then HPR-labeled secondary antibody was added, finally TMB was added to develop the color, and OD450 was read after termination.
(§5) 1 ug/ml of recombinant CD73 protein was coated on ELISA plates (Coning), incubate overnight at 4° C. The next day, wash 5 times in PBS and blocked with 200 ul/well 2% skimmed milk, a certain dose range of CD73 antibodies were incubated for 1 h at room temperature. Wash 5 times with PBST washing buffer (PBS, 0.05% Tween 20), add HRP-conjugated goat anti-mouse IgG (H+L) (Promega) and incubate at room temperature for 1 h to detect bound anti-CD73 antibodies; wash the plate 5 times again and add TMB (Life Technologies) for color development for 5 to 10 min; finally the reaction was stopped by adding 1N HCl, and the OD value was measured at 450 nm. GraphPad Prism software was used to generate data graphs and statistical affinity data.

[9] = biological target: T2, cynomolgus CD73 on the cell surface …; experiment: cell-based or functional assay
[10] = biological target: T1, human CD73 ecto-domain recombinant …; experiment: cell-based or functional assay
[11] = biological target: T1, human CD73 ecto-domain recombinant …; experiment: indirect ELISA, coated soluble huCD73, HRP-labelled secondary antibody, OD450
Method: as §4, §5

[12] = biological target: T1, human CD73 ecto-domain recombinant …; experiment: indirect ELISA, coated soluble huCD73, curve fit
Method: as §4, §5

Binder | EC50 [1] | IC50, blockade of 5'exonuclease activity on 293T/17-Cyno CD73 cells [2] | Bottom [3] | Top [3] | Bottom [4] | Top [4] | EC50 (read off the curve) [5] | EC50 (read off the curve) [6] | EC50 [7] | EC50 [8] | IC50, blockade of 5'exonuclease activity on 293T/17-Cyno CD73 cells [9] | Bottom (lower plateau of the fitted curve), blockade of soluble huCD73 enzyme activity (AMP hydrolysis, luciferase/CellTiter-Glo) [10] | IC50, blockade of soluble huCD73 enzyme activity (AMP hydrolysis, luciferase/CellTiter-Glo) [10] | Top (upper plateau of the fitted curve), blockade of soluble huCD73 enzyme activity (AMP hydrolysis, luciferase/CellTiter-Glo) [10] | EC50 (read off the curve) [11] | Bottom [12] | Top [12]
B1 | 0.0289 nM | 0.017 nM | 48.7 OD value | 8290 OD value | 1.51 fluorescence | 78.7 fluorescence | ~5 nM | ~0.03 µg/mL | 5.42 nM | – | – | – | – | – | – | – | –
B2 | 0.0248 nM | 0.079 nM | 191 OD value | 6290 OD value | 1.4 fluorescence | 36.5 fluorescence | ~2 nM | ~0.2 µg/mL | 1.89 nM | – | – | – | – | – | – | – | –
B3 | 0.0273 nM | 0.005 nM | 128 OD value | 6600 OD value | 0.709 fluorescence | 68.5 fluorescence | – | ~0.1 µg/mL | 6.38 nM | 0.039 nM | 0.084 nM | 14.7 | 0.401 nM | 102 | ~0.04 nM | 0.136 OD450 | 3.09 OD450
